The conditions of data set [1]: removal of sialic acid or chemical modification of carbohydrate; cited from earlier work.
Data set [2] has as its system fibrin. Conditions: versus t-PA control.

B1: ceruloplasmin: ceruloplasmin after removal of sialic acid (protein, UniProt P00450 20-1065, looked up)
Ceruloplasmin: KEKHYYIGIIETTWDYASDHGEKKLISVDTEHSNIYLQNGPDRIGRLYKKALYLQYTDETFRTTIEKPVWLGFLGPIIKAETGDKVYVHLKNLASRPYTFHSHGITYYKEHEGAIYPDNTTDFQRADDKVYPGEQYTYMLLATEEQSPGEGDGNCVTRIYHSHIDAPKDIASGLIGPLIICKKDSLDKEKEKHIDREFVVMFSVVDENFSWYLEDNIKTYCSEPEKVDKDNEDFQESNRMYSVNGYTFGSLPGLSMCAEDRVKWYLFGMGNEVDVHAAFFHGQALTNKNYRIDTINLFPATLFDAYMVAQNPGEWMLSCQNLNHLKAGLQAFFQVQECNKSSSKDNIRGKHVRHYYIAAEEIIWNYAPSGIDIFTKENLTAPGSDSAVFFEQGTTRIGGSYKKLVYREYTDASFTNRKERGPEEEHLGILGPVIWAEVGDTIRVTFHNKGAYPLSIEPIGVRFNKNNEGTYYSPNYNPQSRSVPPSASHVAPTETFTYEWTVPKEVGPTNADPVCLAKMYYSAVEPTKDIFTGLIGPMKICKKGSLHANGRQKDVDKEFYLFPTVFDENESLLLEDNIRMFTTAPDQVDKEDEDFQESNKMHSMNGFMYGNQPGLTMCKGDSVVWYLFSAGNEADVHGIYFSGNTYLWRGERRDTANLFPQTSLTLHMWPDTEGTFNVECLTTDHYTGGMKQKYTVNQCRRQSEDSTFYLGERTYYIAAVEVEWDYSPQREWEKELHHLQEQNVSNAFLDKGEFYIGSKYKKVVYRQYTDSTFRVPVERKAEEEHLGILGPQLHADVGDKVKIIFKNMATRPYSIHAHGVQTESSTVTPTLPGETLTYVWKIPERSGAGTEDSACIPWAYYSTVDQVKDLYSGLIGPLIVCRRPYLKVFNPRRKLEFALLFLVFDENESWYLDDNIKTYSDHPEKVNKDDEEFIESNKMHAINGRMFGNLQGLTMHVGDEVNWYLMGMGNEIDLHTVHFHGHSFQYKHRGVYSSDVFDIFPGTYQTLEMFPRTPGIWLLHCHVTDHIHAGMETTYTVLQNEDTKSG
modifications: desialylated
notes: ceruloplasmin after removal of sialic acid
Take B1: the half-life change entry in data set [1] is “decreases its half-life dramatically”.

B2: glutamine117 glutamic acid275 t-PA: t-PA Carbohydrate Variant Gln117 Glu275 Equivalent (protein, UniProt P00750 36-562, looked up, variant N117Q R275E)
Tissue-type plasminogen …: SYQVICRDEKTQMIYQQHQSWLRPVLRSNRVEYCWCNSGRAQCHSVPVKSCSEPRCFNGGTCQQALYFSDFVCQCPEGFAGKCCEIDTRATCYEDQGISYRGTWSTAESGAECTNWQSSALAQKPYSGRRPDAIRLGLGNHNYCRNPDRDSKPWCYVFKAGKYSSEFCSTPACSEGNSDCYFGNGSAYRGTHSLTESGASCLPWNSMILIGKVYTAQNPSAQALGLGKHNYCRNPDGDAKPWCHVLKNRRLTWEYCDVPSCSTCGLRQYSQPQFEIKGGLFADIASHPWQAAIFAKHRRSPGERFLCGGILISSCWILSAAHCFQERFPPHHLTVILGRTYRVVPGEEEQKFEVEKYIVHKEFDDDTYDNDIALLQLKSDSSRCAQESSVVRTVCLPPADLQLPDWTECELSGYGKHEALSPFYSERLKEAHVRLYPSSRCTSQHLLNRTVTDNMLCAGDTRSGGPQANLHDACQGDSGGPLVCLNDGRMTLVGIISWGLGCGQKDVPGVYTKVTNYLDWIRDNMRP
Take B2: in data set [2], the “fibrin stimulation and specific activity” value was “superior to t-PA control in fibrin stimulation and specific activity”.
